In patent US20230331862A1 (SHANGHAI GENBASE BIOTECHNOLOGY, published 2023):
Residue numbers refer to the chain shown, from its start. Like-named read-outs stand apart in the source and are kept apart here.

T1: CEACAM5 (CD66e) on tumour cells (human, UniProt P06731 35-685, glycosylated (natural, as on tumour cells))
T1 construct: whole, on cells; One molecule for CEACAM5 on all three cell lines; the cell line is named under assay; also called natural CEACAM5 antigen; Lovo cells
T1 sequence (looked up): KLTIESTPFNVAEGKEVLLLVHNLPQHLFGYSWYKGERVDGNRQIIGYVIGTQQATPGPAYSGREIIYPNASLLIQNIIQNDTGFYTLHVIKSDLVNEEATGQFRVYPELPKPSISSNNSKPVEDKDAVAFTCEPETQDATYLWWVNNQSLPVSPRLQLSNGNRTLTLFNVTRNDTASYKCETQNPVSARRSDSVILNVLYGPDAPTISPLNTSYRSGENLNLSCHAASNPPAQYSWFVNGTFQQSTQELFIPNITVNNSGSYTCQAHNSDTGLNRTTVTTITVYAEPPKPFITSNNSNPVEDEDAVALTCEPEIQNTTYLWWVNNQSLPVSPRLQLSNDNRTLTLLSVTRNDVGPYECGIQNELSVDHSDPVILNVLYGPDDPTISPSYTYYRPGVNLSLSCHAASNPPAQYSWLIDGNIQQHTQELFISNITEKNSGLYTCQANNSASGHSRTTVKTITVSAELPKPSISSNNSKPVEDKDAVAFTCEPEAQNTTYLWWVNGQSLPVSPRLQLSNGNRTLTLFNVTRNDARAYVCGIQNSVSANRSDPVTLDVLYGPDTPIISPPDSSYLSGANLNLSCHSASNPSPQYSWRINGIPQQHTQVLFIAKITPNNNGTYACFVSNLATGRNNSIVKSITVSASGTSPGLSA

T2: recombinant CEACAM5 antigen (Sinobiological, 11077-H08H) (UniProt P06731 35-685)
T2 construct: Bought protein; also called CEACAM5-His recombinant protein; CEACAM5-His antigen; not shown: His tag
T2 sequence (looked up): T1 sequence (looked up)

B1: Humanized antibody hAb-013 (antibody, V domains shown)
VH: EVQLVESGGGLVQPGGSLRLSCAASGFTFTDYYMDWVRQAPGKALEWVGFTRNKVNGDTTEYAASVKGRFTISRDDSKNSLYLQMNSLKTEDTAVYYCARDKGIAYYFDYWGQGTLVTVSS
VL: QIVLTQSPATLSASPGERATLSCRASSSVSYIHWYQQKPGQSPRPLIYGTSNLASGVPARFSGSGSGTDFTLTISSLEPEDAAVYYCQQWSSNLSTFGGGTKVEIK
notes: also called hM19-11
B2: Humanized antibody hAb-005 (antibody, V domains shown)
VH: B1 VH with Y33T, D35S, T51I, A63S, A64D, K67E, D76N, S80T, K89R, T90A
VL: DIQLTQSPSSLSASVGDRVTITCRASSSVSYIHWYQQKPGKSPKPWIYGTSNLASGVPSRFSGSGSGTDYTLTISSLQPEDAATYYCQQWSSNLSTFGQGTKVEIK
notes: also called hM19-3
B3: Humanized antibody hAb-006 (antibody, V domains shown)
VH: B1 VH with D35N, A44G, V48L, T51I, A63S, D76I
VL: DIVLSQSPGTLSLSPGERATLSCRASSSVSYIHWYQQKPGQAPRPWIHGTSNLASGIPDRFSGSGSGTDYTLTISRLEPEDFAVYYCQQWSSNLSTFGGGTKVEIK
notes: also called hM19-4
B4: Humanized antibody hAb-009 (antibody, V domains shown)
VH: B1 VH with D35N, V48L, T51I
VL: B1 VL with Q1E, S27Q, L46W, Y48H, S55T
notes: also called hM19-7
B5: Humanized antibody hAb-017 (antibody, V domains shown)
VH: B1 VH
VL: B1 VL with Q1E, T50A
notes: also called hM19-15
B6: Humanized antibody hAb-016 (antibody, V domains shown)
VH: B1 VH
VL: B1 VL with Q1E, A9G, A59D, S76R
notes: also called hM19-14
B7: Humanized antibody hAb-010 (antibody, V domains shown)
VH: B1 VH with T51I
VL: B1 VL with Q1E, L53R, S55T
notes: also called hM19-8
B8: Humanized antibody hAb-003 (antibody, V domains shown)
VH: B1 VH with Y33F, D35N, F50Q, T51M, A64E, K67E
VL: B2 VL with L4M, W46L, Y70F, V103L
notes: also called hM19-1
B9: M7 (11B6), mouse hybridoma antibody (antibody, V domains shown)
VH: EVQLQQSGAELVRPGASVKLSCTVSGFNIKDDYMHWVKQRPEQGLEWIGWIDPENGDTEYASKFQGKATITADTSSNSAYLQLSSLTSEDTAVYYCTFIYYVNPHYYAMDYWGQGTSVTVSS
VL: QIVLTQSPAIMSASPGEKVTITCSATSSVSYMHWFQQKPGTSPKLWIYSTSNLASGVPARFSGSGSGTSYSLTISRVEAEDAATYYCQQRSSYPLTFGAGTKLELK
notes: Hybridoma supernatant, detected with anti-mouse Fc
B10: M7 (11B6) chimeric recombinant antibody (antibody, V domains shown)
VH: B9 VH
VL: B9 VL
B11: M17 (6A8), mouse hybridoma antibody (antibody, V domains shown)
VH: EVQLQQSGAELVRPGASVKLSCTASGFNIKDDYMHWVKQRPEQGLEWIGWIDPENGDTEYASKFQGKATITADTSSNTAYLLLSSLTSEDTAVYYCTTIYYYGSRGAMDYWGQGTSVTVSS
VL: B9 VL with T26S, S49T, N52T, S71F, V77M, Q88H
notes: as for B9
B12: M18 (7G1), mouse hybridoma antibody (antibody, V domains shown)
VH: QIQLVQSGPELKKPGETVKISCKASGYTFTTYGMTWVKQAPGKGLKWMGWINTYSGVPTYIDDFKGRFAFSLETSASTAYLQINNLKNEDTATYFCGRKDLLGFMDYWGQGTSVTVSS
VL: DIQMTQSPSSLSASLGGKVTITCKTSQDINKFMAWYQHKPGKGPRLLIRYTSTLQPGIPSRFSGSGSGRDYSFSIRNLEPEDIATYYCLQYDDLTWTFGGGTKLEI
notes: as for B9

Experiments:
[1] = biological target: T1, CEACAM5 (CD66e) on tumour cells; test: flow cytometry on KATO3 cells, anti-human IgG Fc-APC
Protocol: KATO3 cells (high expression of CEACAM5) were cultured in RPMI1640 medium containing 10% FBS. After the cells were digested with TrypLE trypsin, they were centrifuged and resuspended in DPBS solution containing 2% BSA (FACS buffer, 4° C.), and added to a U-bottom 96-well plate, 5×10⁵/100 μl/well, the antibody diluted in concentration gradient was added, incubated at 4° C. for 1 hour, the supernatant was discarded after centrifugation; 100 μl of solution containing anti-human IgG Fc-APC secondary antibody was added to each well and incubated at 4° C. for 1 hour, then washing was performed with FACS buffer once, resuspending was performed in 200 μl of FACS buffer, and the fluorescence signal value was read on BD C6 plus.

[2] = biological target: T2, recombinant CEACAM5 antigen …; test: ELISA, coated recombinant CEACAM5-His 1 µg/ml, anti-human IgG Fc-HRP
Protocol: Recombinant CEACAM5 antigen (Sinobiological, 11077-H08H) was diluted to 1 μg/ml with DPB S solution, add into a 96-well plate, 100 μl per well, and coated overnight at 2-8° C.; the coating solution was discarded, washing was performed twice with PBS solution, PBS solution containing 2% BSA was added, and blocking was performed at room temperature for 2 hours; the blocking solution was discarded, the humanized antibody diluted in concentration gradient was added, and incubated at 37° C. for 1 hour; the antibody solution was discarded, and washing was performed for 4 times with PBS solution containing 0.05% Tween 20 (PBST solution); the anti-human IgG Fc-HRP secondary antibody was added and incubated at 37° C. for 30 minutes; washing was performed for 4 times with PBST solution, TMB chromogenic substrate was added, and color development was carried out for 5-10 minutes, then the reaction was terminated by adding equal volume of 1M H₂SO₄; the absorbance at 450 nm was read on a microplate reader.

[3] = biological target: T1, CEACAM5 (CD66e) on tumour cells; test: competition by flow cytometry on KATO3 cells; competitor mouse M19 (m2F4) at 1 µg/ml, detected with anti-mouse IgG Fc-APC
Protocol: KATO3 cells (high expression of CEACAM5) were cultured in RPMI1640 medium containing 10% FBS. After the cells were digested with TrypLE trypsin, they were centrifuged and resuspended in DPB S solution containing 2% BSA (FACS buffer, 4° C.), and added a U-bottom 96-well plate, 5×10⁵/100 μl/well, the mouse monoclonal antibody M19 antibody (m2F4) was added to 1 μg/ml and the humanized antibody diluted in gradient (50 μg/ml, 3-fold dilution) was added, then incubated at 4° C. for 1 hour, the supernatant was discarded after centrifugation; 100 μl of solution containing anti-mouse IgG Fc-APC secondary antibody was added to each well and incubated at 4° C. for 1 hour, washing was performed once with FACS buffer, resuspending was performed in 200 μl FACS buffer, and the fluorescence signal value was read on BD C6 plus.

[4] = biological target: T1, CEACAM5 (CD66e) on tumour cells; test: hybridoma supernatant on Lovo cells, anti-mouse Fc-FITC, Celigo imaging
Protocol: Lovo cells and Lovo CEA KO cells were inoculated in 96-well plates, 10⁴ per well, and cultured overnight, 1-10 μl of hybridoma supernatant was added to Lovo/Lovo CEA KO cell culture plates, incubated for 1 hour, the supernatant was discarded, anti-mouse Fc-FITC fluorescent secondary antibody was added, incubated for 1 hour, the supernatant was discarded, DPBS solution containing 2% BSA was added, the fluorescent signals and FITC staining areas were read and analyzed in Celigo.

[5] = biological target: T1, CEACAM5 (CD66e) on tumour cells; test: flow cytometry on KATO3 cells, anti-human IgG Fc-APC; remark: listed apart in the source
Protocol: (§1) After the cells were digested with TrypLE, they were centrifuged and resuspended in DPBS solution containing 2% BSA (FACS buffer solution, 4° C.), and added into a U-bottom 96-well plate, 5×10⁵/100 μl/well, and antibody diluted in concentration gradient was added, incubated at 4° C. for 1 hour, the supernatant was discarded after centrifugation; 100 μl of solution containing anti-human IgG Fc-APC secondary antibody was added and incubated at 4° C. for 1 hour, washing was performed once with FACS buffer, resuspending was performed in 200 μl FACS buffer, and the fluorescence signal value was read on BD Cantoll.

[6] = biological target: T1, CEACAM5 (CD66e) on tumour cells; test: flow cytometry on LS174T cells, anti-human IgG Fc-APC
Protocol: as §1

[7] = biological target: T2, recombinant CEACAM5 antigen …; test: ELISA, coated recombinant CEACAM5-His 1 µg/ml, anti-human IgG Fc-HRP; remark: listed apart in the source
Protocol: The recombinant CEACAM5 antigen (Sinobiological, 11077-H08H) was diluted to 1 μg/ml with DPBS solution, added to a 96-well plate, 100 μl per well, and coated overnight at 2-8° C.; the coating solution was discarded, washing was performed twice with PBS solution, PBS solution containing 2% BSA was added, and blocked at room temperature for 2 hours; the blocking solution was discarded, the antibody diluted in concentration gradient was added, and incubated at 37° C. for 1 hour; the antibody solution was discarded, and washing was performed for 4 times with PBS solution containing 0.05% Tween 20 (PBST solution); anti-human IgG Fc-HRP secondary antibody was added and incubated at 37° C. for 30 minutes; washing was performed for 4 times with PBST solution, TMB chromogenic substrate was added, color development was performed for 5-10 minutes, and the reaction was terminated with equal volume of 1M H₂SO₄; the absorbance at 450 nm was read on a microplate reader.

Binder	EC50 [1] [µg/mL]	Emax [1] [%]	EC50 [2] [µg/mL]	Emax Inhibition, % [3] [%]	IC50 [3] [µg/mL]	binding result [2]	Lovo binding percentage [4] [%]	EC50 [5] [µg/mL]	EC50 [6] [µg/mL]	EC50 [7] [µg/mL]
B1	12.7	49.3	6.1	89	5.2	–	–	–	–	–
B2	3250	9.1	–	–	–	no binding	–	–	–	–
B3	5.7	118	3.11	47.2	6.9	–	–	–	–	–
B4	1.8	109	2.87	62.7	2.7	–	–	–	–	–
B5	2.2	57.7	7.05	73.9	4.5	–	–	–	–	–
B6	3.2	48.4	4.32	73.2	6.4	–	–	–	–	–
B7	1.3	60.6	3.56	75	2.3	–	–	–	–	–
B8	2.7	85.1	3.69	51.3	3.9	–	–	–	–	–
B9	–	–	–	–	–	–	54.6	–	–	–
B10	–	–	–	–	–	–	–	2.6	1.9	0.008
B11	–	–	–	–	–	–	34.7	–	–	–
B12	–	–	–	–	–	–	89.5	–	–	–
